The data set is described as follows: soluble on expression in E. coli; label from the status in PepcDB or PDB records.
“KQGPTSVAYVEVNNNSMLNVGKYTLADGGGNAFDVAVIFAANINYDTGTKTAYLHFNENVQRVLDNAVTQIRPLQQQGIKVLLSVLGNHQGAGFANFPSQQAASAFAKQLSDAVAKYGLDGVDFNDEYAEYGNNGTAQPNDSSFVHLVTALRANMPDKIISLYNIGPAASRLSYGGVDVSDKFDYAWNPYYGTWQVPGIALPKAQLSPAAVEIGRTSRSTVADLARRTVDEGYGVYLTYNLDGGDRTADVSAFTRELYGSEAVRT”: the “soluble on expression in E. coli” value is given as “soluble”.

As to “MSLANYIKDIREKVGHMPLIMVGVGAAYIKEEKVLLQERADTGGWGLPGGYMEYGESIEQTLKREFKEDAGLEIIDYKFLKNFDREFFKYPNGDQTQVLTPFYLVTKVKEGKPQFDPHETSRVDFFDFNDLPEIHFASHKRILTYLQDILEGHHHHHH”, the “soluble on expression in E. coli” value is reported as “not soluble”.

Consider “MGSDKIHHHHHHMATQRGTTAPPQTGSEQTGSVAGAGNARASLGVDGAVRLATSSVTTQSYAREFARLFNVDTAHTLTTTSLKTAQLTATHMCSSVHGLGKSTPLPTEDAYILSLQLQHSGGAELWKRGRRVPTEPYAPGSIMLGHLSDEPVANLPDPFECILFHIPRPAFDELCGLSALPPVGELDDVNRTIDPVLHHLGLALVPAMADPQLAGSLFFDHVAHAMYERLATTYGRFRGTLPPRGRVLSKTQERIAKELLVADLLVEPPLSDIALACGLSVRQFVDAFRSTTGMPPFRWLRAYRIERAKELLRRTSFSLAEIGAACGFADQSHFTRTFSAATGTTPGDWRRACGA”, for which the “soluble on expression in E. coli” value was “not soluble”.

Consider “MGSDKIHHHHHHGCSDDFKSGLRLDGDVWVNSIRLDEYAGTVDYQNKAIVVGVPYDYDITRMVVTEMNLSEGAKASIAIGETIDFSLPVSLTVKNGDVQMSYTITVKRDEAKILTFKLNDTYVGKVDQLSKTISVVVPLTVDITQLKGTFTVTDGATVTPASGSIQDFTNPVTYTATYRSAVTPYVVTVTQGNVIPTAFVGTASSVSLLTSPEEKAAAQWMMDNVSMSEYISFKDVVDGKVDLGKYTAIWWHFHADNGDNPPLPDDAKAAAEKFKVYYQNGGNLLLTRYATFYIANLGIAKDERVPNNSWGGNEDSPEITSAPWSFLITGSESHPLFQDLRWKDGDKSTVYTCDAGYAITNSTAQWHIGTDWGGYDDLNAWRNLTGGIDLAHGGDGAVVIAEFEPRSNSGRTLCIGSGCYDWYGKGVDASADYYHYNVEQMTLNAINYLCK”, for which the “soluble on expression in E. coli” value is “not soluble”.

For “GMKTQITTRDLVLEFIHALNTENFPAAKKRLNENFTFNGPMGHREGSERYMNDMEKMKFKYVVHKMFEEGNDVCLIYDINMNGKTIAASGLYHLEKGEITSLHVYFDPRPLFEE”, the “soluble on expression in E. coli” value is reported as “soluble”.

With “MEEGDIVGILKVFFVRTGAIGKRLGFKAGDIRIREEIVQANLTWKEDGEIRRERIKTRFFGYFRSHVAEWEPVIAAESVDVERGEVARIKIKEITLPEYTVITPLFIRRHALGSLIDVVQQGKRRKVEEKKRIGEAIFLPARSGRVEKGDLLGVINVYYIATENFSVGRREKDEVLAKVVDERGRKEFRIKPFAYRRKTIARWEPIVAAENRKVRKGEVEEIAIEPISLEENTIVYPLYVMRNAFGSVVDVVEERPRRVEERREIIKAVFLPVFDGEIRKGQLLGVMNVYSIEVQPYEVIWRWLEEWQGEFRRLFAEVVGLEHHHHHH”, the “soluble on expression in E. coli” value is recorded as “soluble”.

Take “MSLRDIAIGASLELSGPTQSIGTAYKKALELQVDSINEQGGVLGGRKLRLVVKDNQTKPAQNITNVNDLINNDHVVAVITGGCSACTVPVTSIVEKRKVPLISLASATAITDPVAERQYTFKISPNPAQDAEVLLADLKKKGVKSVGLLNVDNPYGQEGRAAVLAQAKKAGIEVTGTQQFGQEDKDMSVQAKRLVDDRPEAVVVWAVMPAAGIIAKNLRDAEFDGGVYLDAGAGAELFVKGAQGAAEGVHMVFPRVLAIGDVTSGGDSVRKQKQWVARYTDRYQDYSGFASFAADAALMLRDAIAKSGSTDGAELRDTIETIGFDGVSGPIRNSAKEHSGLQPESLGVLVVRDGDWHLANEGHHHHHH”: the “soluble on expression in E. coli” value is recorded as “soluble”.

For the sequence “MAHHHHHHMADDILQCVHKEFKYVLISSDINDQIKELTFSGSERKFQGVLASYFRRIIFDEKGKNELKEVIKEKLKVSKENDNGGTERAGAEQEGDQNGQKSGQPNGAELNASAITPDLINNAVESSQTYQIIPLTIPTEKTNFFAVNCYIDDIGRIKKLPYNSRASRICSTEIYGDAFLSKTYDNEDFRRCDFTISEYEQFLQNPPKAENRYPPSDTMCVSG”, the “soluble on expression in E. coli” value is “soluble”.

As to “MGSDKIHHHHHHKQLVHEGYRVTGCKRSAEELSALTEVGIEAYPLQLGSEAPSAPDAQALSGLFQTDYLVVNIPPRLKRGNAAYLEELQQLIALTQGWQYQQIVFISTTGVYPAKDKVMTEADALAESSDSQVLLDAEALFQVLPHACIVRFAGLVGPKRHPGRFLAGKTDVSGANVAVNLVHLSDCVSAVSRILAATGSGLSVAPIYNLCAPTHPTKAEFYQAAAESLGLVAPEFNQQSMPSKVIQGDAIVTDLGFRYQYASPQDMLAAC”, the “soluble on expression in E. coli” value was “not soluble”.

Turning to “MTAILLHNVAKSYRSYDHPWETLWEVFTKTRRHREWTALHPLSLEIAHGEVVGIVGTNGAGKSTLLKLIAGTLTPSAGDIRVNGHVAALLELGAGFHPDMTGRENVYLGASVMGLSSERVDRLYDGIVEFAGLGEFMDQPVKTYSSGMYMRLAFAVATAADPDVLILDEALSVGDGAFARKSFERIIGYKDAGKTILFCSHSLYQVEAICSRVLWLDHGRLVMDGEPARVVSAYAEFLGGGGEGCGTPDQPAPAAVAGSGVGRLTKVEVEADGVEGRKLTVRSGQTDLTVAVGFASDPALPPPSVGLTITGSNGWAVTSASTSNDGLTISRRPDGSGEVELSFPRFPLLKGAYWVNVFLLCEQGIHLYDRIEHAAELEVVQDGLEQGVVSLPRRWSVNGAPASAVSPTVPTVAAWLEHHHHHH”, the “soluble on expression in E. coli” value is reported as “not soluble”.

As for “MTTAARRPAPTTAGAGWDAGVGALVNPSRRRGGTLRLVSSADVDSLDPARTYYVWVWLLQRLLNRTLMAYPTDPGPAGLVPAPDLAEGPGEVSDGGRTWTYRLRRGLRYDDGTPITSDDVRHAVQRVFAQDVLPGGPTYLIPLLDDPERPYPGPYRTDEPLRSVLTPDEHTIVFRLTRPFSDFDHLMAQPCAAPVPRRSDTGADYGRDPRSSGPYRVARHEPDTLLHLERNPHWDRATDPIRPALPDRVELTIGLDVDVLDARLIAGEFDINLEGRGLQHAAQRRATADEVLRSHTDNPRTSFLHFVAMQPHIPPFDNVHVRRAVQYAADKILLQDARGGPVNGGDLTTALFPPTLPAHQDLDLYPTGPDLRGDLDAARAELAAAGLPDGFRAVIGTQRGKFRLVADAVVESLARVGIELTVKELDVATYFSLGAGHPETVREHGLGLLVTDWGADFPTEYGFLAPLVDGRQIKRNGGNWNLPELDDPEVNALIDETLHTTDPAARAELWRAVERRVMEHAVLLPLVHDKTLHFRNPWVTNVYVHPAFGLYDIQAMGLAEED”, the “soluble on expression in E. coli” value was “soluble”.

For the sequence “MRRLKRDPLERAFLRGYQNGITGKSRDLCPFTHPTTRQSWLNGWREGRGDNWDGLTGTAGLQRLNQLQHVLEHHHHHH”, the “soluble on expression in E. coli” value is listed as “not soluble”.

As to “MIITIARQCGCGGHEVARILANKLGMELFDKKKLLEEANQLGQAEEHSNFFNEVPINSLLYGIAMGFGNTKPMDKSLKLVKAITENKDAIIIGRCANIIYKDSKDVTSVYLFADKEFRIKYLMERDGISEKEAEKYIKEVDEKRTSFHKYCTDTVWGDAKEYQLCLDTGKIGFEKTAELIMNYINAKKES”, the “soluble on expression in E. coli” value is given as “not soluble”.

Consider “MAALASSLIRQKREVREPGGSRPVSAQRRVCPRGTKSLCQKQLLILLSKVRLCGGRPARPDRGPEPQLKGIVTKLFCRQGFYLQANPDGSIQGTPEDTSSFTHFNLIPVGLRVVTIQSAKLGHYMAMNAEGLLYSSPHFTAECRFKECVFENYYVLYASALYRQRRSGRAWYLGLDKEGQVMKGNRVKKTKAAAHFLPKLLEVAMYQEPSLHSVPEASPSSPPAPLEHHHHHH”, for which the “soluble on expression in E. coli” value is recorded as “not soluble”.

For “MGGLSAQSTAATATMGGKNKQRTKGNLRPSNSGRAAELLAKEQGTVPGFIGFGTSQSDLGYVPAIQGAEEIDSLVDSDFRMVLRKLSKKDVTTKLKAMQEFGTMCTERDTETVKGVLPYWPRIFCKISLDHDRRVREATQQAFEKLILKVKKQLGPYLKSLMGYWLMAQCDTYTPAAFAAKDAFEAAFPPSKQPEAIAFCKDEITSVLQDHLIKETPDTLSDPQTVQRKKEKLNSTGLLEHHHHHH”, the “soluble on expression in E. coli” value is listed as “not soluble”.

Take “MTQAADILIAGGGLNGPALALALARNGFSVTVVDGRPAPQRAEPGFDGRAYALALASKRLLAALGLWDGLASQAQPILRVVTADGTTAGGPSPFVLAFDHAEIEEGPMGYLLEDRFLYAAFLAALEAEPRIRLVSGTTVEAQEVGPQGVTVTLSTGAQLSGRLLVGCDGRQSGTARRAGIRRSGWGYGQTALVTAIEHERPHEGTAWQYFLPGGPLAILPLPGGHRSSIVWSESDAAAAGIQRLPDADYLGALRPRFGDFLGSIRLAGDRFTYPLSLSLAHSFVAPRVALVGDAAHGVHPIAGQGLNLGLRDVAALAEVLTLAARRGEDVGSPLVLDRYQQWRRFDATALALGMDMVNRLFSNDNPVMRAGRDLSMGIVNALPGLRRGFIRQAAGLSGDLPRLLQGRPILEHHHHHH”: the “soluble on expression in E. coli” value is given as “not soluble”.

In the case of “GALGVVDEVHAGKEIGLQIYSLSQELYKGDVAANLRKVKDMGYSKLELAGYGKGAIGGVPMMDFKKMAEDAGLKIISSHVNPVDTSISDPFKAMIFKYSKEVTPKIMEYWKATAADHAKLGCKYLIQPMMPTITTHDEAKLVCDIFNQASDVIKAEGIATGFGYHNHNMEFNRVATKEQQEKVKGNPFAAFMKVGDQIYDLMLKDTDPSKVYFEMDVYWTVMGQNDPVEYMQKHPDRIKVLHIKDRAVFGQSGMMNFEMIFKQMYANGIKDYFVELEQMPDGRTQFAGVKDCADYLIKAPFVK”, the “soluble on expression in E. coli” value is listed as “soluble”.

As for “MGHHHHHHSHGTRVTLRFQMKMFESADSTATRSGQDLWAEICSCLPNPEQEDGANNAFSDSFVDSCPEGEGQREVADFAVQPAVKPWAPLQDSEVYLASLEKKLRRIKGLNQEVTSKDMLRTLAQAKKECWDRFLQEKLASEFFVDGLDSDESTLEHFKRWLQPDKVAVSTEEVQYLIPPESQVEKPVAEDEPAAGDKPAAAEQ”, the “soluble on expression in E. coli” value is “soluble”.

For “MKSNKNEFLKLLTAYQGIIHKVNRIYFRSEADREDNFQETVYQLWRSFPALQNKEKPASWIYTVAINTSISKVRKDSRIEFRDSPPDGEPVDPWEQQEQDENWQRLVNALQKLNEIDKSIMLLYMEDYSYEEIAGIVGISSSAVGVKIHRLKGQLQKQFKK”, the “soluble on expression in E. coli” value was “not soluble”.

As to “SDPRRNFQPGGYDSRNTFTSGSFGPPDFGESDEAELVSVSWNQDYSCFAAGTSHGFRIYNCEPFKETFRRELKDGGFKIVEMLFRSNILALVGGGPNSQYPSNKVLIWDDHQGRCISEFTFRSEIRAVKLRRDRIVVVLEHKIYVYNFMDLRLLHQIENMANPRGLCCLSHHMNTSVLACPGIRRGEVRVEHFGLNMVQIINAHDSNIACMTLTLDGLLLATASTKGTLIRIFNTMDGTRLQEVRRGVDRADIYSIALSPNVQWLAVSSDKGTVHIFSLRVRVIGEDAYSTEHETSSNSLQPLVSPASGANPGSSLSFLRGVLPKYFSSEWSFSQFHVPEVTQYFAAFGAQNTIAIIGLDGSFYRCNFDPVNGGEMTQLEHFHFLKQDSPR”, the “soluble on expression in E. coli” value is “soluble”.

Consider “MAPQPFDIDTPSLRVFLPAPELATGRAIVACPGGGYGGLAVNHEGYDWAPYFNKQGIALIVLKYRMPHGDRTLPISDAEAAMKMARDSADVWNLNPYDIGIMGSSAGGHLASTIATHTRPELRPNFQILFYPVITMDKSYTHIGSHDNLLGKDAFAELETEFSNEKQVTKETPRAFIAYSDDDKTVPPANGVNYYLGLHKNHVPAVLHIYASGGHGWGIRENFIYLEHHHHHH”, for which the “soluble on expression in E. coli” value is “not soluble”.
